Measurements as given in patent US20160089418A1.

Tests used:
human IFN-beta (human) = human IFN-beta (human) (UniProt P01574); assay: cell-based or functional assay
[1] = biological target: recombinant human IFN-alpha (human); assay: cell-based or functional assay

UniProt P01574, sequence (P01574 22-187 limits assumed): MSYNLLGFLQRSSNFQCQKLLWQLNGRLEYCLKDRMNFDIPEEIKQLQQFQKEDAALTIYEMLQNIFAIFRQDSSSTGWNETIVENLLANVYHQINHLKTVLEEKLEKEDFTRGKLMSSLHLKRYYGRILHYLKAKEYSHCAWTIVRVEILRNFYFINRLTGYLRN

For “Vaccinia virus B19 IFN-binding protein (full length protein) (from UniProt P25213 20-351)”, the percent neutralization of IFN at a 1:400 dilution of the medium (human IFN-beta (human)) was > 50% and the percent neutralization of IFN at a 1:400 dilution of the medium [1] was > 80%.
